# From FireProtDB (doi:10.1016/j.jmb.2009.08.013)
# Settings: Bos taurus; pH 7.2; 10 °C; Urea; Fluorescence; Sodium phosphate 25 mM; KCl 150 mM; whole UniProt chain shown
protein,measurement,value
"Cellular tumor antigen p53 wild type, P67939 (protein) MEESQAELNVEPPLSQETFSDLWNLLPENNLLSSELSAPVDDLLPYTDVATWLDECPNEAPQMPEPSAPAAPPPATPAPATSWPLSSFVPSQKTYPGNYGFRLGFLQSGTAKSVTCTYSPSLNKLFCQLAKTCPVQLWVDSPPPPGTRVRAMAIYKKLEHMTEVVRRCPHHERSSDYSDGLAPPQHLIRVEGNLRAEYLDDRNTFRHSVVVPYESPEIDSECTTIHYNFMCNSSCMGGMNRRPILTIITLEDSCGNLLGRNSFEVRVCACPGRDRRTEEENLRKKGQSCPEPPPRSTKRALPTNTSSSPQPKKKPLDGEYFTLQIRGFKRYEMFRELNDALELKDALDGREPGESRAHSSHLKSKKRPSPSCHKKPMLKREGPDSD",denaturant midpoint (higher = more stable),5.21 M
